Experimental data: patent CN109678963A (UNIV CHINA PHARMA, dated 2019)

B1: 抗CD24人源化嵌合抗体cG7 (antibody, V domains shown)
VH: QVKLEESGGGLVQPGGSLKISCAASGFDFSRYWMSWVRQAPGKGLEWIGEINPDSSTINYTPSLRDKFIISRDNAKNTLYLQMSKVRYEDTSLYYCARQGDYWGQGTSVTVSS
VL: not shown
B2: 靶向CD24的双特异性抗体cG7-MICA (anti-CD24 humanized chimeric antibody cG7 fused at the heavy chain C-terminus to the human MICA extracellular domains 1-3) (bispecific antibody)
heavy: not shown
light: DIVMTQTPLSLSVTIGQPASISCKSSQSLLHSDGKTYLNWLLQRPGQSPKRLIYLVSKLDSGVPDRFTGSGSGTDFTLKVSRVEAEDLGVYYCWQGAHFPYTFGGGTKLEIKVDTVAAPSVFIFPPSDEQLKSGTASVVCLLNNFYPREAKVQWKVDNALQSGNSQESVTEQDSKDSTYSLSSTLTLSKADYEKHKVYACEVTHQGLSSPVTKSFNRGEC
notes: Expressed in CHO-s, purified on Protein A, about 210 kD

Assays:
[1] = molecular target: T1, CD24裸肽 (CD24 naked peptide) (human, UniProt P25063 27-59, limits assumed); experiment: SPR, Biacore X100; antibody captured by anti-human IgG(Fc) on a CM5 chip, CD24 naked peptide as analyte (100-0.39 nM), 25 C
T1 construct: also called 抗原CD24
T1 peptide (looked up): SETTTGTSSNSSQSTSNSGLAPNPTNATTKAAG

[2] = molecular target: T2, 重组人rNKG2D分子 (recombinant human NKG2D) (human, UniProt P26718 78-216, limits assumed); experiment: SPR, Biacore X100; cG7-MICA captured by anti-human IgG(Fc) on a CM5 chip, recombinant human rNKG2D as analyte (100-6.25 nM)
T2 construct: Used as SPR analyte; source and construct are not described
T2 sequence (looked up): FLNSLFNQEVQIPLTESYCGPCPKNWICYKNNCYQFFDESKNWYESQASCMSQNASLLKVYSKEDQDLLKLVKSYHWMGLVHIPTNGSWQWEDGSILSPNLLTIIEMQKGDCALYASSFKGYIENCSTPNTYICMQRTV

Binder | Kd [1] | koff [1] | kon [1] | Kd [2] | koff [2] | kon [2]
B1 | 0.191 nM | 0.000336 s⁻¹ | 1.76e+06 M⁻¹ s⁻¹ | – | – | –
B2 | 0.242 nM | 0.000339 s⁻¹ | 1.4e+06 M⁻¹ s⁻¹ | 576 nM | 0.0015 s⁻¹ | 2620 M⁻¹ s⁻¹
